First the molecules themselves.
B1: dog albumin (natural protein, UniProt P49822 25-608, looked up)
chain: EAYKSEIAHRYNDLGEEHFRGLVLVAFSQYLQQCPFEDHVKLAKEVTEFAKACAAEESGANCDKSLHTLFGDKLCTVASLRDKYGDMADCCEKQEPDRNECFLAHKDDNPGFPPLVAPEPDALCAAFQDNEQLFLGKYLYEIARRHPYFYAPELLYYAQQYKGVFAECCQAADKAACLGPKIEALREKVLLSSAKERFKCASLQKFGDRAFKAWSVARLSQRFPKADFAEISKVVTDLTKVHKECCHGDLLECADDRADLAKYMCENQDSISTKLKECCDKPVLEKSQCLAEVERDELPGDLPSLAADFVEDKEVCKNYQEAKDVFLGTFLYEYARRHPEYSVSLLLRLAKEYEATLEKCCATDDPPTCYAKVLDEFKPLVDEPQNLVKTNCELFEKLGEYGFQNALLVRYTKKAPQVSTPTLVEVSRKLGKVGTKCCKKPESERMSCAEDFLSVVLNRLCVLHEKTPVSERVTKCCSESLVNRRPCFSGLEVDETYVPKEFNAETFTFHADLCTLPEAEKQVKKQTALVELLKHKPKATDEQLKTVMGDFGAFVEKCCAAENKEGCFSEEGPKLVAAAQAALV
B2: rat albumin (natural protein, UniProt P02770 25-608, looked up)
chain: EAHKSEIAHRFKDLGEQHFKGLVLIAFSQYLQKCPYEEHIKLVQEVTDFAKTCVADENAENCDKSIHTLFGDKLCAIPKLRDNYGELADCCAKQEPERNECFLQHKDDNPNLPPFQRPEAEAMCTSFQENPTSFLGHYLHEVARRHPYFYAPELLYYAEKYNEVLTQCCTESDKAACLTPKLDAVKEKALVAAVRQRMKCSSMQRFGERAFKAWAVARMSQRFPNAEFAEITKLATDVTKINKECCHGDLLECADDRAELAKYMCENQATISSKLQACCDKPVLQKSQCLAEIEHDNIPADLPSIAADFVEDKEVCKNYAEAKDVFLGTFLYEYSRRHPDYSVSLLLRLAKKYEATLEKCCAEGDPPACYGTVLAEFQPLVEEPKNLVKTNCELYEKLGEYGFQNAVLVRYTQKAPQVSTPTLVEAARNLGRVGTKCCTLPEAQRLPCVEDYLSAILNRLCVLHEKTPVSEKVTKCCSGSLVERRPCFSALTVDETYVPKEFKAETFTFHSDICTLPDKEKQIKKQTALAELVKHKPKATEDQLKTVMGDFAQFVDKCCKAADKDNCFATEGPNLVARSKEALA
B3: monkey albumin (natural protein, UniProt A2V9Z4 25-608, looked up)
chain: DTHKSEVAHRFKDLGEEHFKGLVLVAFSQYLQQCPFEEHVKLVNEVTEFAKTCVADESAENCDKSLHTLFGDKLCTVATLRETYGEMADCCAKQEPERNECFLQHKDDNPNLPPLVRPEVDVMCTAFHDNEATFLKKYLYEVARRHPYFYAPELLFFAARYKAAFAECCQAADKAACLLPKLDELRDEGKASSAKQRLKCASLQKFGDRAFKAWAVARLSQKFPKAEFAEVSKLVTDLTKVHTECCHGDLLECADDRADLAKYMCENQDSISSKLKECCDKPLLEKSHCLAEVENDEMPADLPSLAADYVESKDVCKNYAEAKDVFLGMFLYEYARRHPDYSVMLLLRLAKAYEATLEKCCAAADPHECYAKVFDEFQPLVEEPQNLVKQNCELFEQLGEYKFQNALLVRYTKKVPQVSTPTLVEVSRNLGKVGAKCCKLPEAKRMPCAEDYLSVVLNRLCVLHEKTPVSEKVTKCCTESLVNRRPCFSALELDEAYVPKAFNAETFTFHADMCTLSEKEKQVKKQTALVELVKHKPKATKEQLKGVMDNFAAFVEKCCKADDKEACFAEEGPKFVAASQAALA

This experiment has as its target T1, [Leu^14]exenatide-ABD (leucine substituted for methionine at position 14 (stands in the printed …, C-terminus -OH (Table 1))).
T1 construct: numbers count on: the exenatide peptide; Gly-Gly-Ser tri-peptide linker; 88 residue peptide; also called ABD fused exenatide; source: synthetic peptide (solid phase, reverse-phase HPLC)
Kind of experiment: SPR; BioRad ProteOn XPR36, GLC sensor chip, 25°C; albumins amine-coupled (2000-5000 RU), peptides flowed over at 3 concentrations in duplicate; 10 mM HEPES pH 7.4, 150 mM NaCl, 3 mM EDTA, 0.005% Tween-20, 0.2 mg/ml ovalbumin; highest concentration dissociated for 3 hours; 1:1 (Langmuir) model with correction for mass transfer. The settings on record: both partners purified.
In general, Kd refers to the concentration at which binding is half-saturated. Consider B1, for which the Kd was determined as 0.0981 nM.
Next, B2: 0.0082 nM.
To B3 belongs 0.0402 nM.
